This is an account of results in the supplement of paper PMC12042874.

± gives the uncertainty stated by the source.

The nature of the first data set: amyloid nucleation score (Sup35N fusion, yeast selection) (log enrichment); library NNK2; higher = more nucleation; inactive = no reads after selection. In outline: (§1)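 The nucleation score is the DiMSum log enrichment of output over input reads, centred on the mode score of non-aggregating sequences. Only sequences with 100 or more input reads were scored, using Illumina sequencing of input and output plasmid inserts. Psi-negative yeast expressing Sup35N fused to peptides of 20 random codons were induced 24 hours with 100 μM copper sulfate and grown 7 days at 30°C on medium lacking adenine and uracil.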
RVKYLDDCQYMLFRWCRMFT: the amyloid nucleation score is 0.209 ± 0.29. On the same count and under the same terms, to SGQRQLCVWCVCVAGGRIKL belongs 6.54 ± 0.076; to KKNEIEVECGPNCGTGTLVF, 5.04 ± 0.054. Still for that read-out and setting: to EWVRWLVVLNLRSNAGNYDI belongs -0.953 ± 0.54; to ASKSYIITSSCRASLTVSSL, “inactive”. Still for that read-out and setting: to TSRRL belongs 2.1 ± 0.13; to EYVADHGQIADGR, 0.782 ± 0.26. In the case of MIHYKYGFPNMGIRTYVSFV, the amyloid nucleation score was determined as 1.47 ± 0.26. The same measure, in the same setting: with RQMMWRYEE the figure was 0.3 ± 0.32; with RITFV, -0.64 ± 0.76; with HDGVNCSYRSDSIYIVENTH, “inactive”. On the same count and under the same terms, with GDKYICELHWRFLGQNSVW the figure was 4.07 ± 0.11; with IDLNLYERFDFQFTVSVPSV, “inactive”. The same measure, in the same setting: to LMFCTRFSLYTGSWFWSSVT belongs 1.57 ± 0.18; to FHSPLCSCQSSLKVEWGHSE, “inactive”; to IPWNQRRKW, 0.671 ± 0.16. The substance VSMAIFGSSNILYSIRSLLE registered an amyloid nucleation score of 4.37 ± 0.082. On the same count and under the same terms, to NVRVRLET belongs 0.027 ± 0.27; to DLKVWAWKLILFGIMDLGGH, 3.89 ± 0.048. The same measure, in the same setting: with DRVLTPNKGGKPRTLPHRDS the figure was 1.19 ± 0.37; with SRGSSMMQIYFL, 5.995 ± 0.059.

Take FRRRRIFYYITEHVLLCMLK: the amyloid nucleation score is -0.5 ± 0.64.

The substance IVRVSEPIEVHVHVNAVYSV yielded an amyloid nucleation score of 4.68 ± 0.083. The same measure, in the same setting: with TNWGNAVSSAMRLGSL the figure was 0.438 ± 0.28; with VVVNNGTGKVPFDDM, -0.952 ± 0.42; with YGAWCERLKRFSRLVWSDGR, 0.312 ± 0.54.

As to QAWYRLVCIASYLFYEGFNV, the amyloid nucleation score amounted to 0.193 ± 0.13.

As to AGPAQQYMCMTCVTSVHTDP, the amyloid nucleation score was found to be 8.84 ± 0.045. For the substance HLCSCTMWGPHNRGFYYHWC, the amyloid nucleation score entry is “inactive”.

Take KRWLKMWKRWQRRFMCGLLS: the amyloid nucleation score was 0.472 ± 0.32. Still for that read-out and setting: to NSIAYPACLNKWGWIKFSSY belongs -1.41 ± 0.29. In turn, HKRHTLK displayed an amyloid nucleation score of -0.809 ± 1.1. On the same count and under the same terms, to FCNVKLLLVGWCRVSVKKGV belongs 2.12 ± 0.28. On the same count and under the same terms, with RFYVGTIFSPYILLSSTECM the figure was 3.82 ± 0.06.

In turn, GVENKDRVSPNYVG gave an amyloid nucleation score of -0.424 ± 0.49.

Another data set is described as follows: amyloid nucleation score (Sup35N fusion, yeast selection) (log enrichment); library NNK1; higher = more nucleation; inactive = no reads after selection. In outline:
as §1
Turning to SLVASNSQL, the amyloid nucleation score was 0.06 ± 0.45. On to GYGIMANS, for which the amyloid nucleation score was -0.179 ± 0.51. Same read-out and setting: to VIGLSQWVNSLSYRFEMQNL belongs 4.72 ± 0.094.

On to LYSLVGCWTLCLNVSCFEWL, for which the amyloid nucleation score worked out at 4.93 ± 0.064.

The substance STVAGRWNYCSVTLLCVGFF had an amyloid nucleation score of 1.45 ± 0.31. The same measure, in the same setting: with YSAITNGSFQVLV the figure was 0.17 ± 0.21; with QCVGPSVCVFVHRLVGCYRA, 3.34 ± 0.098; with TAALFLAMLGDYVVSNMWTT, “inactive”.

On to KVVDNAYSSDSLYFVGLFFW, for which the amyloid nucleation score amounted to 1.25 ± 0.84. The same measure, in the same setting: to MIFSHETSRVIGDPWGPWN belongs 0.056 ± 0.88; to VYGVPWYGLSYLFCTSVDID, 6.252 ± 0.059. Still for that read-out and setting: to VNLRCRSTLEGSN belongs -0.077 ± 0.31; to KMLSSQLITRPFGGPKRHKP, 0.753 ± 0.65. Still for that read-out and setting: with QHCARTAGVSVARVVVSNCG the figure was 0.161 ± 0.41; with PTRDCRVNKGSLMWTP, -0.213 ± 0.59; with WYYYTVSSEGSNSAGTKLRG, 0.376 ± 0.38. VSLYM had an amyloid nucleation score of 0.924 ± 0.97. Same read-out and setting: with SCPRVTIFCCSGILGREWGK the figure was 7.189 ± 0.045; with SFEDGGLMFMAPDIRGTGTR, 0.884 ± 0.79. As to FFAFYDVHPLHLGDTTLGGW, the amyloid nucleation score came out at 3.29 ± 0.14. The same measure, in the same setting: with VKCPVGDDHWGSRGDASVIT the figure was -0.004 ± 0.8.

NRNERVTHSSQFSIGFEERM: the amyloid nucleation score came to 1.14 ± 0.57. In turn, VMLGGSPHMPIAN came in with an amyloid nucleation score of 0.047 ± 0.41.

On to MSCYLQAFDITTTTNDASWW, for which the amyloid nucleation score was -0.95 ± 1.6. The same measure, in the same setting: with FSHGFMITICHWEMTKETDW the figure was -0.476 ± 0.37; with NTMPSGWNRYTVYG, -0.634 ± 0.44. Still for that read-out and setting: to TCNHYNRVVFQSNVIYLIHV belongs 2.77 ± 0.15; to LIRMHTICVWDSSVIMSIMA, -0.354 ± 0.44; to NLTSVPYMPLECDYHARSYF, -1.55 ± 1.2. On the same count and under the same terms, to RTRTFVNPAAAIHMPPSEET belongs 0.049 ± 0.29; to HRCGLPASFIHHFVCDRAVG, -0.686 ± 1.4.

For the substance LVPWGSFFALA, the amyloid nucleation score was -0.146 ± 0.97. The same measure, in the same setting: with CCDSPSRRSRAKECRMKYSM the figure was -1.32 ± 1.2; with FTSPVIKY, 0.089 ± 0.89. The same measure, in the same setting: to SMLAFQMITKQRQHSFWMWT belongs -0.766 ± 0.39. Still for that read-out and setting: with TGMWPFNRRCITIRTVSRNL the figure was 0.467 ± 0.93; with RARWDPFLMCYLTVVWTSFV, -0.12 ± 0.29; with HLYDC, “inactive”. Take IVYIWFLSLNFSMMVSFRFP: the amyloid nucleation score came to 0.805 ± 0.29.

The substance LRRSTFASVDLRRADFIKLF registered an amyloid nucleation score of 0.165 ± 0.69. Still for that read-out and setting: with FSRPWWRSWHSFFSHDEKTI the figure was 0.282 ± 0.69. As to HPLQMISCNKHIQLANMQFR, the amyloid nucleation score worked out at 0.795 ± 0.37. Still for that read-out and setting: to SIPLCTLESQSEKVTWISDQ belongs 0.325 ± 0.78. Still for that read-out and setting: to LHIIRRNRDSIAFVYWTV belongs 0.756 ± 0.41; to FLYWSHSYFLITWFRCVLEI, “inactive”. For the substance ISWMLLVLSFSMTVLNIRWN, the amyloid nucleation score is -0.199 ± 0.33. On the same count and under the same terms, to LECYEVYRYRKCLCCIVCVC belongs 0.633 ± 0.42.

Substance LRTGQGHYDRVVGHRHNLCA displayed an amyloid nucleation score of -1.42 ± 0.9.

In the case of YRGYDKREYCSHFFTWDTYG, the amyloid nucleation score is 0.821 ± 0.72.

For STFAAFSNTVYASCQYLLNG, the amyloid nucleation score is -1.14 ± 0.93. Still for that read-out and setting: to TFLQFTRYFWLTTYNKGSS belongs “inactive”. Turning to KCHRPWYSCLIC, the amyloid nucleation score worked out at 1.98 ± 0.61.

SDRPMRFNFSNNAYDSHLYL displayed an amyloid nucleation score of 0.511 ± 0.67.

Turning to GSSCNSLPFYVRDRFNTPCV, the amyloid nucleation score entry was “inactive”. Same read-out and setting: with PYKTWRYSSRIFYWAALPMV the figure was -0.842 ± 1.7; with IRLRMWDHRWSTKGGSHTFL, -1.36 ± 0.95. On the same count and under the same terms, to LLLYDPREC belongs -1.46 ± 0.91; to GNAVYMNYFNVLDWNWSL, 4.966 ± 0.048. Same read-out and setting: with EVEIFILNLLFIFPNQKARW the figure was 4.17 ± 0.12; with HRSKS, -0.087 ± 0.32; with DINNCSSEGRTYPFVIELPP, 1.03 ± 0.76. HVGHCLLLKFQSIWDFWCVC registered an amyloid nucleation score of 0.237 ± 0.69. On the same count and under the same terms, to LWSVKEGWGRPEAGHRQLWG belongs -0.413 ± 0.52; to VGEQSCLLFYMKQ, 0.247 ± 0.29.

In turn, VQRELFLVLHHTSVGRGSAP returned an amyloid nucleation score of 1.08 ± 0.24.

In turn, WMFTGVRLVSK had an amyloid nucleation score of 0.3 ± 0.43. Same read-out and setting: with PDSARSECAGRVNLFVFRAR the figure was 0.559 ± 0.32; with VVTEKGLPWARQW, -0.205 ± 0.33.

Substance YPLINTLDMHRLCRIYCVNE showed an amyloid nucleation score of -0.514 ± 0.54. Same read-out and setting: to AIYVRW belongs 1.08 ± 0.22; to DINSYVAYLVYEGLVNGSDE, 0.252 ± 0.46; to FAHTLGA, 0.333 ± 0.79.

In turn, LNLRGDRN came in with an amyloid nucleation score of 0.304 ± 0.29. The same measure, in the same setting: to NWSHGLLTPNVCW belongs -0.573 ± 1.4; to KCGGKRCWLSFCLDAD, 1.48 ± 0.33. On the same count and under the same terms, to LLRWFALGTYVSGWRWDERR belongs -0.179 ± 0.32; to VSYRTSMSVVLRCGFYCSAY, 3.22 ± 0.14; to NTVCSAMRW, 4.14 ± 0.091. Still for that read-out and setting: to VDCPIECTAAGRSHDSGV belongs 1.42 ± 0.63; to RHFRMGRHRFEGWVLTGASG, 0.194 ± 0.38. Turning to NVLVQGFG, the amyloid nucleation score was -0.017 ± 0.66.

Take PQRRGHIRIDRILSSTWTVA: the amyloid nucleation score stood at 0.197 ± 0.39.

ITAFKRAKRSAGCW yielded an amyloid nucleation score of -0.034 ± 0.25.

IQQTLPQRYMYNEIRPCSSL: the amyloid nucleation score amounted to 0.502 ± 0.19. Still for that read-out and setting: to HWTPC belongs “inactive”; to TQEVLLFPGGCYNPFAFGWS, -0.647 ± 0.75; to TYYVRCLGLLGLNPTFRSPR, 0.365 ± 0.36. Take CVFYISINCYFIWVRLDWVY: the amyloid nucleation score entry was “inactive”.

The substance IKTMISQY gave an amyloid nucleation score of -0.406 ± 0.25.

Regarding PCQFMASSYFHK, the amyloid nucleation score result is “inactive”.

Substance RILRDQTWIPSMATDSILVC came in with an amyloid nucleation score of -1.23 ± 0.79. Take WLVCNEGSIMDLASGLGLIR: the amyloid nucleation score is 0.561 ± 0.66. Still for that read-out and setting: to RVCQKCCPVVYAMNQWIFDW belongs 7.536 ± 0.051; to LSMGLR, 0.388 ± 0.68; to VYSRPL, 0.098 ± 0.57. The same measure, in the same setting: with KPRVRAAGLCSLQFWALIAV the figure was -0.275 ± 0.72; with VHFEGFWAFTLVDLT, 0.232 ± 0.48; with VLLVGVSDESRSRSPQGMSP, 0.243 ± 0.84. Turning to KYRASYRNHRDMGDSAVYGY, the amyloid nucleation score is 0.044 ± 0.26. In turn, MDKLASLLSSKGCAIKGLRS had an amyloid nucleation score of -2.19 ± 1.3. Still for that read-out and setting: to YQVMLRSCLYLLYFSMFNCL belongs 1.27 ± 0.79. On the same count and under the same terms, with VKVVALRIWRSEDLVVRFWG the figure was 0.562 ± 0.78.
